Data as given in PMC3643934, “Identification and Characterization of the Direct Interaction between Methotrexate (MTX) and High-Mobility Group Box 1 (HMGB1) Protein” (PLoS ONE, 2013).

Columns and labels:
Details in all cases: both partners purified
[1] = target: T1, extracellular domain of RAGE (M1-A344) (UniProt Q15109 23-344); assay: SPR; same set-up, no MTX; equilibrium responses (Req), concentration-response curve and Lineweaver-Burk plot
T1 construct: signal peptide in the construct; receptor for advanced glycation end products (RAGE), extracellular domain, M1-A344 as printed; The results call it 'chimeric RAGE' without saying what it is fused to; the R&D Systems product with these limits is probably the human RAGE Fc chimera (surmise), in which the signal peptide would be removed on secretion; also called chimeric RAGE; receptor for advanced …
T1 sequence (Q15109 23-344): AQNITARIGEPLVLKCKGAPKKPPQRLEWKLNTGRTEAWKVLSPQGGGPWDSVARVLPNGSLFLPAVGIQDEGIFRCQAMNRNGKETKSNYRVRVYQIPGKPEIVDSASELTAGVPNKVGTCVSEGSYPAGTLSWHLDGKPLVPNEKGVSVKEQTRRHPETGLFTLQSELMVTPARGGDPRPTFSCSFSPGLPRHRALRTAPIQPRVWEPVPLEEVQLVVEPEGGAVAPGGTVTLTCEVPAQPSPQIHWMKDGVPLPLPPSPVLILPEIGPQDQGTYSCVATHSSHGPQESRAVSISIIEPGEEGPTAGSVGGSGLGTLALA

[2] = target: T1, extracellular domain of RAGE (M1-A344); assay: SPR; Biacore 3000; RAGE immobilised on a CM5 chip by amine coupling up to 5000 RU; Bj 0.31-10 µM injected at 30 µl/min, 120 s association and 120 s dissociation; PBS, 25°C; no MTX; kinetic analysis by global fitting
[3] = target: T1, extracellular domain of RAGE (M1-A344); assay: SPR; same set-up, Bj 0.31-10 µM injected with 1 mM MTX; equilibrium responses (Req), Lineweaver-Burk plot, noncompetitive inhibition model

B1: Bj protein (amino acid residues F88-K181 of HMGB1) (domain or fragment)
chain: FKDPNAPKRPPSAFFLFCSEYRPKIKGEHPGLSIGDVAKKLGEMWNNTAADDKQPYEKKAAKLKEKYEKDIAAYRAKGKPDAAKKGVVKAEKSK
modifications: Paper numbering starts at G1 (initiator Met removed), so entry number = paper number + 1 (F88-K181 -> 89-182; D157 -> D158; Y161 -> Y162). N-terminal 6xHis tag from pTrcHis omitted; expressed in E. …
Kd [1]: 1350 nM | Kd [2]: 3710 ± 1680 nM | koff [2]: 0.00052 ± 0.25 s⁻¹ | kon [2]: 150 ± 0.01 M⁻¹ s⁻¹ | Kd [3]: 1390 nM
